# Results as given in US20040205843A1 (NORTH CAROLINA STATE UNIVERSITY, published 2004).
# Numbering of substitutions follows the chain as printed. Like-named read-outs stand apart in the source and are kept apart here.
# B1: AL1 1-168 (other)
# chain: MPSHPKRFQINAKNYFLTYPQCSLSKEESLSQLQALNTPINKKFIKICRELHEDGQPHLHVLIQFEGKYCCQNQRFFDLVSPTRSAHFHPNIQRAKSSSDVKTYIDKDGDTLVWGEFQVDGRSARGGCQTSNDAAAEALNASSKEEALQIIREKIPEKYLFQFHNLNS
# B2: AL1 1-158 (other)
# chain: MPSHPKRFQINAKNYFLTYPQCSLSKEESLSQLQALNTPINKKFIKICRELHEDGQPHLHVLIQFEGKYCCQNQRFFDLVSPTRSAHFHPNIQRAKSSSDVKTYIDKDGDTLVWGEFQVDGRSARGGCQTSNDAAAEALNASSKEEALQIIREKIPEK
# B3: AL1 AAA136 (Leu) fused to the Gal4 activation domain (pNSB785) (other)
# chain: MPSHPKRFQINAKNYFLTYPQCSLSKEESLSQLQALNTPINKKFIKICRELHEDGQPHLHVLIQFEGKYCCQNQRFFDLVSPTRSAHFHPNIQRAKSSSDVKTYIDKDGDTLVWGEFQVDGRSARGGCQTSNDLLLEALNASSKEEALQIIREKIPEKYLFQFHNLNSNLDRIFDKTPEPWLPPFHVSSFTNVPDEMRQWAENYFGKSSAARPERPISIIIEGDSRTGKTMWARSLGPHNYLSGHLDLNSRVYSNKVEYNVIDDVTPQYLKLKHWKELIGAQRDWQTNCKYGKPVQIKGGIPSIVLCNPGEGASYKVFLDKEENTPLKNWTFHNAKFVFLNSPLYQSSTQSS
# B4: AL1 EKY159 (Ala7) fused to the Gal4 activation domain (pNSB760) (other)
# chain: B3 chain with L134A, L135A, L136A, E157A, K158A, Y159A
# B5: AL1 REK154 (Ala6) fused to the Gal4 activation domain (pNSB759) (other)
# chain: B3 chain with L134A, L135A, L136A, R152A, E153A, K154A
# B6: AL1 KEE146 (Ala5) fused to the Gal4 activation domain (pNSB894) (other)
# chain: B3 chain with L134A, L135A, L136A, K144A, E145A, E146A
# B7: AL1 Q-HN165 (Ala8) fused to the Gal4 activation domain (pNSB761) (other)
# chain: B3 chain with L134A, L135A, L136A, Q162A, H164A, N165A
# B8: GST-AL1 119-180 (other)
# chain: VDGRSARGGCQTSNDAAAEALNASSKEEALQIIREKIPEKYLFQFHNLNSNLDRIFDKTPEP
# B9: AL1 EKY159 (Ala7), full length, untagged (other)
# chain: B3 chain with L134A, L135A, L136A, E157A, K158A, Y159A
# B10: AL1 E--N140 + KEE146 (Ala4+5) fused to the Gal4 activation domain (pNSB757) (other)
# chain: B3 chain with L134A, L135A, L136A, E137A, N140A, K144A, E145A, E146A
# B11: AL1 FQ118 (Ala13) fused to the Gal4 activation domain (pNSB872) (other)
# chain: B3 chain with F117A, Q118A, L134A, L135A, L136A
# B12: AL1 RS-R125 (Ala1) fused to the Gal4 activation domain (pNSB786) (other)
# chain: B3 chain with R122A, S123A, R125A, L134A, L135A, L136A
# B13: AL1 K144 fused to the Gal4 activation domain (pNSB916) (other)
# chain: B3 chain with L134A, L135A, L136A, K144A
# Assays:
# [1] = molecular target: T1, Full length GST-AL1 1-352 (tomato golden mosaic virus (TGMV), UniProt P03567 1-352); test: GST co-purification on glutathione-sepharose from insect cells, immunoblot
# T1 sequence: B3 chain with L134A, L135A, L136A
# [2] = molecular target: T2, Maize Rb (amino acids 214-866) fused to the Gal4 DNA binding domain (Zm214C) (maize)
# [3] = molecular target: T3, Wild type TGMV AL1 fused to the Gal4 DNA binding domain (pNSB736) (tomato golden mosaic virus (TGMV))
# [4] = molecular target: T3, Wild type TGMV AL1 fused to the Gal4 …; remark: listed apart in the source
# [5] = molecular target: T2, Maize Rb (amino acids 214-866) fused to …; remark: listed apart in the source
# [6] = molecular target: T3, Wild type TGMV AL1 fused to the Gal4 …; test: yeast two-hybrid, beta-galactosidase activity
# [7] = molecular target: T4, TGMV AL1, wild type, full length, untagged (tomato golden mosaic virus (TGMV), UniProt P03567 1-352); test: GST co-purification from insect cells, immunoblot
# T4 construct: also called Rep; authentic AL1
# T4 sequence: B3 chain with L134A, L135A, L136A
# AL1 160-352 = molecular target: T5, AL1 160-352 (tomato golden mosaic virus (TGMV), UniProt P03567 160-352); test: GST co-purification from insect cells, immunoblot
# T5 sequence: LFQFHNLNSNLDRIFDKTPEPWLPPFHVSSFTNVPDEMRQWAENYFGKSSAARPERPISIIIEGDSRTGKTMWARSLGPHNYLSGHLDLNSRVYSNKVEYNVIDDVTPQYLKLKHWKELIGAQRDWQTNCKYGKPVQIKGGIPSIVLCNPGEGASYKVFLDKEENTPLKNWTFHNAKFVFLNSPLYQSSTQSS
# AL1 147-352 = molecular target: T6, AL1 147-352 (tomato golden mosaic virus (TGMV), UniProt P03567 147-352); test: GST co-purification from insect cells, immunoblot
# T6 sequence: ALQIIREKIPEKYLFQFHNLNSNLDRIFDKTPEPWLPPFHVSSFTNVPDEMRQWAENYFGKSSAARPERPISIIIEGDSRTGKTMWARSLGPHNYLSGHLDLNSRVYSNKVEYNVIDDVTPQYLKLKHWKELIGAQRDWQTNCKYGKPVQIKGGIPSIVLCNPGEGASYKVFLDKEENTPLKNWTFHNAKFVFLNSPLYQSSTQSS
# AL1 134-352 = molecular target: T7, AL1 134-352 (tomato golden mosaic virus (TGMV), UniProt P03567 134-352); test: GST co-purification from insect cells, immunoblot
# T7 sequence: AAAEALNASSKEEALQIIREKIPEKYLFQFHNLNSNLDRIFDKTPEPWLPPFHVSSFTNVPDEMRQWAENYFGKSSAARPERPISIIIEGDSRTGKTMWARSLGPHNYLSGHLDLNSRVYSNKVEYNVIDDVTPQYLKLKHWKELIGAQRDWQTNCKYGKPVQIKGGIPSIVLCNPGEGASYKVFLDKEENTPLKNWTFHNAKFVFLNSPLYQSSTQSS
# AL1 119-352 = molecular target: T8, AL1 119-352 (tomato golden mosaic virus (TGMV), UniProt P03567 119-352); test: GST co-purification from insect cells, immunoblot
# T8 sequence: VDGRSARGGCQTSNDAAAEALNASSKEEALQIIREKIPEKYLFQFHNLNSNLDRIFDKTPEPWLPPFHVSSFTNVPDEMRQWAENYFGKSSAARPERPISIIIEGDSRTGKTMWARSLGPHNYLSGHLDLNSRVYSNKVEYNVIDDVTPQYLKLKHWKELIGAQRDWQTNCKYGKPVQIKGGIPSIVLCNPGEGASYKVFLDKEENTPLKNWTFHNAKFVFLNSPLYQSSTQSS
# GST-AL1 119-180 = molecular target: B8; test: GST co-purification from insect cells, immunoblot
# [8] = molecular target: T1, Full length GST-AL1 1-352; test: GST co-purification from insect cells, immunoblot
# GST-AL1(1-180) = molecular target: T9, GST-AL1(1-180) (tomato golden mosaic virus (TGMV), UniProt P03567 1-180); test: GST co-purification from insect cells, immunoblot
# T9 construct: also called C-terminal truncation of AL1 fused to GST
# T9 sequence: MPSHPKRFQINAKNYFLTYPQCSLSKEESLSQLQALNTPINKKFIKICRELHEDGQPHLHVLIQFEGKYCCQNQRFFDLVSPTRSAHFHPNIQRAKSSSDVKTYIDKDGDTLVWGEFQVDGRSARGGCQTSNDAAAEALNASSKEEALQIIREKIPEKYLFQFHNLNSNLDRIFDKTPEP
# GST-AL1(119-352) = molecular target: T10, GST-AL1(119-352) (tomato golden mosaic virus (TGMV), UniProt P03567 119-352); test: GST co-purification from insect cells, immunoblot
# T10 construct: also called N-terminal truncation of AL1 fused to GST
# T10 sequence: T8 sequence
# T2 sequence (P04386 1-147): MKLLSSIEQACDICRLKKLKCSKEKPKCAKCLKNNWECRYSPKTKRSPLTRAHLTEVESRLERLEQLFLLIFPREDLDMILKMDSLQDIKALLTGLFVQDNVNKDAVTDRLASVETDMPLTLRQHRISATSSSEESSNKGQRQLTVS
Binder,Rep/Rb (Rb binding activity relative to wild type) [2],oligomer. (oligomerization activity relative to wild type) [3],oligomer. (oligomerization activity relative to wild type) [4],further results
B1,–,–,–,binding result [1]: no binding
B2,–,–,–,binding result [1]: no binding
B3,8 relative to wild type (100),30 relative to wild type (100),–,–
B4,31 relative to wild type (100),–,–,–
B5,69 relative to wild type (100),57 relative to wild type (100),57 relative to wild type (100),fold reduction of RBR1 binding activity against wild type [5]: 2 fold
B6,–,–,–,"AL1 interactions, percent of wild type AL1/AL1 mediated activation [6]: 51 % of wild type; RBR1 binding activity, percent of wild type [5]: 16 % of wild type"
B7,–,–,102 relative to wild type (100),–
B8,–,–,–,binding result [7]: binds; binding result (AL1 160-352): no binding; binding result (AL1 147-352): no binding; binding result (AL1 134-352): binds; binding result (AL1 119-352): binds
B9,–,–,–,binding result (GST-AL1 119-180): no binding; binding result [8]: binds; binding result (GST-AL1(1-180)): no binding; binding result (GST-AL1(119-352)): binds
B10,45 relative to wild type (100),88 relative to wild type (100),88 relative to wild type (100),–
B11,23 relative to wild type (100),95 relative to wild type (100),95 relative to wild type (100),–
B12,20 relative to wild type (100),27 relative to wild type (100),27 relative to wild type (100),–
B13,–,–,–,"RBR1 interactions, percent of wild type levels [5]: 42 % of wild type"
